Tests used:
[1] = molecular target: the molecule itself; experiment: SAXS; Trx-free proteins, about 3.0 mg/ml, 20 mM sodium phosphate (pH 7.5), 150 mM NaCl, 2.0 mM β-ME, 0.1 mM GA3, 25 °C; mass from I(0), Guinier and Kratky plots
[2] = molecular target: T1, SLR1(M28-A112), Trx-free (rice (Oryza sativa), UniProt Q7G7J6 28-112); experiment: as above; settings: both partners purified
T1 construct: DELLA protein SLR1 of rice (Oryza sativa), residues M28-A112; 13C/15N-labelled for the NMR spectra; also called SLR(M28-A112); source: E. coli, purified (HiTrap Chelating, Superdex 200; thrombin, HiTrap Chelating, Superdex 75); not shown: Trx, N-terminal, cleaved; His6, N-terminal, cleaved
T1 sequence (looked up): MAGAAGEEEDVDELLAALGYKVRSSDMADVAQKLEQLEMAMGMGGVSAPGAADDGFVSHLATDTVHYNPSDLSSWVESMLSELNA

[3] = molecular target: T1, SLR1(M28-A112), Trx-free; experiment: ITC; 10 μl aliquants of 400 μM OsGID1/GA3 into 1.4482 ml of 50 μM SLR1 variant, 30 °C, 20 mM sodium phosphate (pH 7.5), 150 mM NaCl, 2.0 mM β-ME, 0.1 mM GA3; settings: both partners purified
[4] = molecular target: T2, SLR1(M28-A112) ΔSPACE(G69-F83) (rice (Oryza sativa), UniProt Q7G7J6 28-112, ΔSPACE(G69-F83)); experiment: as above; settings: both partners purified
T2 construct: DELLA protein SLR1 of rice (Oryza sativa), residues M28-A112 with G69-F83 deleted; Named without Trx in the ITC experiments; removal of the tag is told in general in the methods; also called SLR(M28-A112)ΔSPACE; source: E. coli, purified (HiTrap Chelating, Superdex 200; thrombin, HiTrap Chelating, Superdex 75); not shown: Trx, N-terminal, cleaved; His6, N-terminal, cleaved
T2 sequence (looked up): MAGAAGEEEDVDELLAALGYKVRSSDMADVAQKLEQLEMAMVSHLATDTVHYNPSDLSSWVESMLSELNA

[5] = molecular target: T3, SLR1(M1-A172) (rice (Oryza sativa), UniProt Q7G7J6 1-172); experiment: as above; settings: both partners purified
T3 construct: DELLA protein SLR1 of rice (Oryza sativa), residues M1-A172; Named without Trx in the ITC experiments; removal of the tag is told in general in the methods; also called SLR(M1-A172); source: E. coli, purified (HiTrap Chelating, Superdex 200; thrombin, HiTrap Chelating, Superdex 75); not shown: Trx, N-terminal, cleaved; His6, N-terminal, cleaved
T3 sequence (looked up): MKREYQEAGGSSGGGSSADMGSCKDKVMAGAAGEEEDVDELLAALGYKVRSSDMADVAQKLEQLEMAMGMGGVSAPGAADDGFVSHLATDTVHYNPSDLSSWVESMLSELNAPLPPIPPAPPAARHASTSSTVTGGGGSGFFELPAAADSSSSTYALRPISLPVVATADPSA

[6] = molecular target: T4, SLR1(M1-H327) (rice (Oryza sativa), UniProt Q7G7J6 1-327); experiment: as above; settings: both partners purified
T4 construct: DELLA protein SLR1 of rice (Oryza sativa), residues M1-H327; Named without Trx in the ITC experiments; removal of the tag is told in general in the methods; also called SLR(M1-H327); source: E. coli, purified (HiTrap Chelating, Superdex 200; thrombin, HiTrap Chelating, Superdex 75); not shown: Trx, N-terminal, cleaved; His6, N-terminal, cleaved
T4 sequence (looked up): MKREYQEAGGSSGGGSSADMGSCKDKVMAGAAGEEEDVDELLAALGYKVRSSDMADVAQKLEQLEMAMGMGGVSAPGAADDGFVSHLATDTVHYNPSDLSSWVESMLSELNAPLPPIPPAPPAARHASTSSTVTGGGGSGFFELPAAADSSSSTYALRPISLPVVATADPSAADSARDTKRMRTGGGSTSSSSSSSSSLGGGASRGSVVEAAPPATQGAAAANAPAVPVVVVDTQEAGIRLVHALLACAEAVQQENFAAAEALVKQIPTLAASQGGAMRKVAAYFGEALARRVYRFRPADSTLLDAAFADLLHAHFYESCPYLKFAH

[7] = molecular target: T1, SLR1(M28-A112), Trx-free; experiment: as above; settings: both partners purified; remark: listed apart in the source
[8] = molecular target: SLR1(M1-E104), Trx-free (rice (Oryza sativa)) (UniProt Q7G7J6); experiment: as above

stoichiometry N [2]: 1
dH [3]: -8.44 kcal/mol
stoichiometry N [3]: 0.92
dH [4]: -8.3 kcal/mol
stoichiometry N [4]: 0.5
dH [5]: -6.8 kcal/mol
stoichiometry N [5]: 1.06
dH [6]: -7.1 kcal/mol
stoichiometry N [6]: 1.01
dH [7]: -6.9 kcal/mol
stoichiometry N [7]: 1.06
Ka [8]: 11000 M⁻¹
dH [8]: -8.4 kcal/mol
stoichiometry N [8]: 1
B1: OsGID1 (rice gibberellin receptor GID1), Trx-free, used as the OsGID1/GA3 complex (receptor, rice (Oryza sativa), UniProt Q6L545 1-354, looked up)
chain: MAGSDEVNRNECKTVVPLHTWVLISNFKLSYNILRRADGTFERDLGEYLDRRVPANARPLEGVSSFDHIIDQSVGLEVRIYRAAAEGDAEEGAAAVTRPILEFLTDAPAAEPFPVIIFFHGGSFVHSSASSTIYDSLCRRFVKLSKGVVVSVNYRRAPEHRYPCAYDDGWTALKWVMSQPFMRSGGDAQARVFLSGDSSGGNIAHHVAVRAADEGVKVCGNILLNAMFGGTERTESERRLDGKYFVTLQDRDWYWKAYLPEDADRDHPACNPFGPNGRRLGGLPFAKSLIIVSGLDLTCDRQLAYADALREDGHHVKVVQCENATVGFYLLPNTVHYHEVMEEISDFLNANLYY
notes: Gibberellin receptor GID1 of rice (Oryza sativa); theoretical MW of the dimer printed as 79.2 kDa; The printed mass (39.6 kDa a monomer) fits the whole protein; source: recombinant, purified
stoichiometry N [1]: 2
